# Patent US20050025768A1 (Biogen, published 2005)
# T1: human DC-CK (human, UniProt P55774 21-89, limits assumed)
# T1 construct: reading it as DC-CK1/CCL18 is mine
# T1 sequence (looked up): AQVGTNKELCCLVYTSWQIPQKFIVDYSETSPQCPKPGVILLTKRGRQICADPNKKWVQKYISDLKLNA
# T2: human fractalkine (human, UniProt P78423 25-100, limits assumed)
# T2 sequence (looked up): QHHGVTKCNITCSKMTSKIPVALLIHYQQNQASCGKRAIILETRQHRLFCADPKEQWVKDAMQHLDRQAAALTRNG
# T3: human MCP-2 (human, UniProt P80075 24-99)
# T3 construct: also called hMCP-2; huMCP-2
# T3 sequence (looked up): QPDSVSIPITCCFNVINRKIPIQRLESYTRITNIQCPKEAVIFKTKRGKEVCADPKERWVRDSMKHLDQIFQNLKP
# How the values were obtained:
# human MCP-4 = biological target: T4, human MCP-4 (human, UniProt Q99616 24-98, limits assumed); assay: ELISA, purified mAb
# T4 construct: also called hMCP-4
# Experimental: (§1) ELISA specificity assays were performed using purified monoclonal antibodies to confirm the binding specificities of the supernatant MCP-specific monoclonal antibodies described above. Antibodies were purified by Protein A affinity column chromatography, according to standard methods known in the art.
# (§2) ELISA was performed as previously described in Example 1. Briefly, MaxiSorp 384 well plates were coated with 15-20 μl antigen in PBS. Recombinant purified human antigens included: MCP-1, MCP-2, MCP-3, MCP-4, IL-8, eotaxin, murine MCP-1 (JE), murine MCP-3, murine MCP-5, and rat MCP-1. All antigens, including MCP-3, were immobilized. Plates were washed and purified monoclonal antibody (10 μg/ml) was added to each well and incubated for 1 hour at room temperature. Plates were washed and wells were incubated with 20 μl/well of a 1:25,000 dilution of goat anti-mouse IgG peroxidase conjugate (Jackson Catalog Number 515-036-003). Plates were incubated for 1 hour at room temperature, washed, and 20 μl/well of substrate (TMB, tetramethylbenzidine, Jackson, Catalog Number 515-036-062) was added. Reaction was allowed to proceed and stopped by addition of 20 μl/well of 2M H₂SO₄. Antibodies 1A1 bound specifically to hMCP-1, hMCP-2, hMCP-3, and mMCP-1. Antibodies 11K2, 4N4, 5A 13, 6D21, 6I5, and 7H1 bound specifically to hMCP-1, hMCP-2, hMCP-3, mMCP-1, mMCP-3, and mMCP-5.
# human IL-8 = biological target: T5, human IL-8 (human, UniProt P10145 28-99, limits assumed); assay: ELISA, purified mAb
# T5 construct: also called hIL8
# Experimental: as §1, §2
# human eotaxin = biological target: T6, human eotaxin (human, UniProt P51671 24-97); assay: ELISA, purified mAb
# T6 construct: also called hEotaxin
# Experimental: as §1, §2
# human DC-CK = biological target: T1, human DC-CK; assay: ELISA, hybridoma supernatant
# Experimental: (§3) MaxiSorp 384 well plates were coated with 15-20 μl antigen in PBS. Recombinant purified human antigens included: MCP-1, MCP-2, MCP-3, MCP-4, IL-8, eotaxin, fractalkine, Gcp-2, DC-CK (Gcp-2 and DC-CK are also chemokines). Plates were incubated with antigen for 2 hours at 37° C. or overnight at 4° C. Non-specific sites were blocked with 80 μl/well of 1% BSA/PBS for 1 hour at room temperature. Plates were washed and 15 μl of hybridoma supernatant was added to each well and incubated for 1 hour at room temperature. Plates were washed and wells were incubated with 20 μl/well of a 1:25 000 dilution of goat anti-mouse IgG peroxidase conjugate (Jackson Catalog Number 515-036-003). Plates were incubated for 1 hour at room temperature, washed, and 20 μl/well of substrate (TMB, tetramethylbenzidine, Jackson, Catalog Number 515-036-062) was added. Reaction was allowed to proceed and stopped by addition of 20 μl/well of 2M H₂SO₄. Reactive clones were picked for further analysis. Isotyping of hybridoma supernatants was performed by antigen-dependent ELISA. Briefly, wells were coated with 50 μl of human MCP-1 (5 μg/ml) for 1 hour at 37° C. Wells were washed 4 times and blocked with PBS/1% BSA. Isotyping of hybridoma supernatants was then performed using a mouse immunoglobulin screening/isotyping kit (Zymed Laboratories, San Francisco, Calif.) as recommended by the manufacturer.
# human Gcp-2 = human Gcp-2 (human, UniProt P80162 38-114, limits assumed); assay: ELISA, hybridoma supernatant
# Experimental: as §3
# human fractalkine = biological target: T2, human fractalkine; assay: ELISA, hybridoma supernatant
# Experimental: as §3
# human MCP-1 = biological target: T7, human MCP-1 (human, UniProt P13500 24-99); assay: KinExA kinetic exclusion assay, in solution
# T7 construct: also called hMCP-1; huMCP-1
# Experimental: (§4) Polymethylmethacrylate beads activated with NHS were coated with 10 μg recombinant human MCP-1 in 1 ml buffer. The beads were packed into a column in the KinExA instrument for each sample. This packed bead column is able to capture free MCP mAb or Fab flowed through the column. The amount of free mAb or Fab in solution was determined using a secondary goat anti-mouse heavy and light chain IgG-Cy5 conjugate.
# (§5) A fixed amount of 11K2 mAb, 1A1 mAb, 11K2 Fab, or 1A1 Fab was incubated with various amounts of human MCP-1, MCP-2 or MCP-3 for three hours. The amount of uncomplexed free antibody remaining in solution was determined by flowing these mixtures over the MCP-1-loaded bead column and labeling with the Cy5 secondary antibody. The fluorescent signal was plotted against the MCP concentration and the affinity was determined using a quadratic curve fit
# human MCP-2 [1] = biological target: T3, human MCP-2; assay: KinExA kinetic exclusion assay, in solution
# Experimental: as §4, §5
# rhesus MCP-1 = biological target: T8, rhesus MCP-1 (rhesus, UniProt P61275 24-99); assay: ELISA, 1 ug/ml synthetic chemokine coated, mAb 10 ug/ml
# T8 construct: also called primate MCP-1
# Experimental: as §3
# (§6) In addition, both 1A1 and 11K2 mAbs recognize primate MCP-1. Plates were coated with 1 μg/ml of chemically synthesized chemokines (corresponding to the cynomolgus and rhesus MCP-1 sequences) and probed with 10 μg/ml of monoclonal antibodies, including MOPC21, 1l K2, 3N10, 1A1, D9, and 1M11, as described above.
# cynomolgus MCP-1 = biological target: T9, cynomolgus MCP-1 (cynomolgus, UniProt P61274 24-99); assay: as above
# T9 construct: also called primate MCP-1
# Experimental: as §3, §6
# human MCP-2 [2] = biological target: T3, human MCP-2; assay: KinExA kinetic exclusion assay, in solution; whole mAb (bivalent IgG1), not Fab
# Experimental: as §4, §5
# human MCP-2 [3] = biological target: T3, human MCP-2; assay: KinExA kinetic exclusion assay, in solution; Fab (monovalent), not whole mAb
# Experimental: as §4, §5
Binder,binding result (human MCP-4),binding result (human IL-8),binding result (human eotaxin),binding result (human DC-CK),binding result (human Gcp-2),binding result (human fractalkine),Kd (human MCP-1),Kd (human MCP-2 [1]),binding result (rhesus MCP-1),binding result (cynomolgus MCP-1),Kd (human MCP-2 [2]),Kd (human MCP-2 [3])
"11K2 (antibody, IgG1, V domains shown, ATCC PTA-3987; also called 11K2.1; 11K2 mAb) VH: EVQLQQSGAELVKAGASVKLSCPASGLNIKDTYMHWVKQRPEQGLEWIGRIDPANGNTKFDPKFQGKATITADTSSNTAYLQLSSLTSEDTAVYYCARGVFGFFDYWGQGTTLTVSS VL: DIQMTQSSSSFSVSLGDRVTITCKATEDIYNRLAWYQQKPGSAPRLLISGATSLETGVPSRFSGSGSGKDYTLSITSLQTEDVATYYCQQFWSAPYTFGGGTKLEIK",no binding (tested: 10 ug/ml),no binding (tested: 10 ug/ml),no binding (tested: 10 ug/ml),no binding,no binding,no binding,< 0.0004 nM,0.018 nM,binds,binds,–,–
"11K2 Fab (Fab, V domains shown, Fab of the murine IgG1 mAb; also called Fab fragment of 11K2) VH: EVQLQQSGAELVKAGASVKLSCPASGLNIKDTYMHWVKQRPEQGLEWIGRIDPANGNTKFDPKFQGKATITADTSSNTAYLQLSSLTSEDTAVYYCARGVFGFFDYWGQGTTLTVSS VL: DIQMTQSSSSFSVSLGDRVTITCKATEDIYNRLAWYQQKPGSAPRLLISGATSLETGVPSRFSGSGSGKDYTLSITSLQTEDVATYYCQQFWSAPYTFGGGTKLEIK",–,–,–,–,–,–,0.011 nM,0.43 nM,–,–,–,–
"1A1 (antibody, IgG1, V domains shown, ATCC PTA-3990; also called 1A1.1; 1A1 mAb) VH: EVQLQQSGAELVRSGASVKLSCTASGFNIKDNYMHWVKQRPEQGLEWIGWIDPENGDTEYAPKFQGKATMTADTSSNTAYLQLSSLTSEDTAVYYCNTWAYYGTSYGGFAYWGQGTTVTVSS VL: not shown",no binding (tested: 10 ug/ml),no binding (tested: 10 ug/ml),no binding (tested: 10 ug/ml),no binding,no binding,no binding,< 0.0007 nM,–,binds,binds,0.0012 nM,–
"1A1 Fab (Fab, V domains shown, Fab of the murine IgG1 mAb; also called Fab fragment of 1A1) VH: EVQLQQSGAELVRSGASVKLSCTASGFNIKDNYMHWVKQRPEQGLEWIGWIDPENGDTEYAPKFQGKATMTADTSSNTAYLQLSSLTSEDTAVYYCNTWAYYGTSYGGFAYWGQGTTVTVSS VL: not shown",–,–,–,–,–,–,0.013 nM,–,–,–,–,0.32 nM
"4N4 (antibody, IgG1, V domains shown, IgG1; ATCC PTA-3994; also called 4N4.1) VH: EVQLQQSGAELVKAGASVKLSCPASGLNIKDTYMHWVKQRPEQGLEWIGRIDPANGNTKFDPKFQGKATITADTSSNTAYLQLSSLTSEDTAVYYCARGVFGFFDYWGQGTTLTVSS VL: DIQMTQSSSSFSVSLGDRVTITCKATEDIYNRLAWYQQKPGSAPRLLISGATSLETGVPSRFSGSGSGKDYTLSITSLQTEDVATYYCQQFWSAPYTFGGGTKLEIK",no binding (tested: 10 ug/ml),no binding (tested: 10 ug/ml),no binding (tested: 10 ug/ml),no binding,no binding,no binding,–,–,–,–,–,–
"5A13 (antibody, IgG1, V domains shown, IgG1; ATCC PTA-3995; also called 5A13.1) VH: EVQLQQSGAELVKAGASVKLSCPASGLNIKDTYMHWVKQRPEQGLEWIGRIDPANGNTKFDPKFQGKATITADTSSNTAYLQLSSLTSEDTAVYYCARGVFGFFDYWGQGTTLTVSS VL: DIQMTQSSSSFSVSLGDRVTITCKATEDIYNRLAWYQQKPGSAPRLLISGATSLETGVPSRFSGSGSGKDYTLSITSLQTEDVATYYCQQFWSAPYTFGGGTKLEIK",no binding (tested: 10 ug/ml),no binding (tested: 10 ug/ml),no binding (tested: 10 ug/ml),no binding,no binding,no binding,–,–,–,–,–,–
"6D21 (antibody, IgG1, V domains shown, IgG1; ATCC PTA-3989; also called 6D21.1) VH: EVQLQQSGAELVKAGASVKLSCPASGLNIKDTYMHWVKQRPEQGLEWIGRIDPANGNTKFDPKFQGKATITADTSSNTAYLQLSSLTSEDTAVYYCARGVFGFFDYWGQGTTLTVSS VL: DIQMTQSSSSFSVSLGDRVTITCKATEDIYNRLAWYQQKPGSAPRLLISGATSLETGVPSRFSGSGSGKDYTLSITSLQTEDVATYYCQQFWSAPYTFGGGTKLEIK",no binding (tested: 10 ug/ml),no binding (tested: 10 ug/ml),no binding (tested: 10 ug/ml),no binding,no binding,no binding,–,–,–,–,–,–
"6I5 (antibody, IgG1, V domains shown, IgG1; ATCC PTA-3986; also called 615; 6I5.1) VH: EVQLQQSGAELVKAGASVKLSCPASGLNIKDTYMHWVKQRPEQGLEWIGRIDPANGNTKFDPKFQGKATITADTSSNTAYLQLSSLTSEDTAVYYCARGVFGFFDYWGQGTTLTVSS VL: DIQMTQSSSSFSVSLGDRVTITCKATEDIYNRLAWYQQKPGSAPRLLISGATSLETGVPSRFSGSGSGKDYTLSITSLQTEDVATYYCQQFWSAPYTFGGGTKLEIK",no binding (tested: 10 ug/ml),no binding (tested: 10 ug/ml),no binding (tested: 10 ug/ml),no binding,no binding,no binding,–,–,–,–,–,–
"7H1 (antibody, IgG1, V domains shown, IgG1; ATCC PTA-3985; also called 7H1.1) VH: EVQLQQSGAELVKAGASVKLSCPASGLNIKDTYMHWVKQRPEQGLEWIGRIDPANGNTKFDPKFQGKATITADTSSNTAYLQLSSLTSEDTAVYYCARGVFGFFDYWGQGTTLTVSS VL: DIQMTQSSSSFSVSLGDRVTITCKATEDIYNRLAWYQQKPGSAPRLLISGATSLETGVPSRFSGSGSGKDYTLSITSLQTEDVATYYCQQFWSAPYTFGGGTKLEIK",no binding (tested: 10 ug/ml),no binding (tested: 10 ug/ml),no binding (tested: 10 ug/ml),no binding,no binding,no binding,–,–,–,–,–,–
